Ends that are not written are not given here.

Test [1] addresses wild-type epidermal growth factor receptor (wtEGFR) (human) (UniProt P00533). Description: Scatchard, A431 cells.
The target of test [2] is wtEGFR-FLAG (N-terminally FLAG-tagged wild-type EGFR on Ba/F3 cells) (human) (UniProt P00533). Description: FACS median fluorescence, Ba/F3 cells; reference anti-FLAG M2.
Test [3] deals with C271A/C283A-EGFR (full length, on Ba/F3 cells) (human) (UniProt P00533). The test is described as follows: FACS median fluorescence, Ba/F3 cells, four clones; reference anti-FLAG M2.
In test [4] the target is T1, 15N-labelled EGFR287-302 peptide with methionine mutated to leucine (human, not fully specified (bridges); cysteine pairing not given here; also: 15N-labelled (residues not given here)).
T1 peptide: CGADSYELEEDGVRKC
Description: NMR, perturbation of 15N HSQC spectra.

Test [5] has as its target T2, Peptide C: LEEKKGNYVVTDH(K-Biot)-OH (biotin on the added C-terminal Lys (K-Biot)).
T2 peptide: LEEKKGNYVVTDHK
The test is described as follows: BIAcore, Peptide C on streptavidin chip. For orientation: In SPR one partner is held on a chip, and binding of the other changes the refractive index at the surface.

Test [6] deals with T3, EGFR peptide 287-302 (806 peptide epitope) (human, not fully specified (bridges); printed as 287CGADSYEMEEDGVRKC302; cysteine pairing not given here).
T3 peptide: CGADSYEMEEDGVRKC
Description: BIAcore, immobilised peptide 287-302, antibody 200 nM.

Consider monoclonal antibody 528, for which, in test [1], the binding sites per cell (sites per cell) turned out to be 2e+06 and the receptors per cell (receptors per cell) came to 2e+06. Also, in test [2], the ratio of antibody binding mAb 528/M2 worked out at 1.37. For the same molecule, in test [3], the ratio of antibody binding mAb 528/M2 came to 1.08.

B1: Fab fragment of mAb806 (Fab, V domains shown)
VH: DVQLQESGPSLVKPSQSLSLTCTVTGYSITSDFAWNWIRQFPGNKLEWMGYISYSGNTRYNPSLKSRISITRDTSKNQFFLQLNSVTIEDTATYYCVTAGRGFPYWGQGTLVTVSA
VL: DILMTQSPSSMSVSLGDTVSITCHSSQDINSNIGWLQQRPGKSFKGLIYHGTNLDDEVPSRFSGSGSGADYSLTISSLESEDFADYYCVQYAQFPWTFGGGTKLEIKR
notes: papain Fab of the intact mAb; also called Fab806
In the case of B1, in test [4], the binding result was “binds”.

B2: monoclonal antibody 806 (mAb806) (antibody, V domains shown)
VH: DVQLQESGPSLVKPSQSLSLTCTVTGYSITSDFAWNWIRQFPGNKLEWMGYISYSGNTRYNPSLKSRISITRDTSKNQFFLQLNSVTIEDTATYYCVTAGRGFPYWGQGTLVTVSA
VL: DILMTQSPSSMSVSLGDTVSITCHSSQDINSNIGWLQQRPGKSFKGLIYHGTNLDDEVPSRFSGSGSGADYSLTISSLESEDFADYYCVQYAQFPWTFGGGTKLEIKR
notes: murine IgG2b; also called m806
On to B2, for which the binding result in test [5] is listed as “no binding (tested: 100 nM)”.

B3: monoclonal antibody 1133 (mAb1133) (antibody, V domains shown)
VH: DVQLQGSGPSLVKPSQSLSLTCTVTGYSITSDYAWNWIRQFPGNKLEWMGYISYSGNTRYNPSLRSRISITRDTSKNQFFLQLNSVTTEDTATYYCATAGRGFPYWGQGTLVTVSA
VL: DILMTQSPSSMSVSLGDTVNITCHSSQDINSNIGWLQQKPGKSFKGLIYHGTNLDDGVPSRFSGSGSGADYSLTISSLESEDFADYYCVQYGQFPWTFGGGTKLEIKR
notes: murine IgG2a
With B3, in test [6], the “maximal binding (RU)” value was 800 RU.
